The values that follow come from patent US20220220166, “PPR PROTEIN CAUSING LESS AGGREGATION AND USE OF THE SAME” (EditForce, Inc., published 2022).

What all share (test): vs PPRcag_1; streptavidin plate luciferase assay, RT
What all share (conditions): tags: N-terminal luciferase (Nluc), C-terminal 6xHis; label: 5'-biotin

Data set [1] addresses T1, PPRcag_3 (6N9Q), Nluc-PPR-His6 (synthetic construct).
T1 chain: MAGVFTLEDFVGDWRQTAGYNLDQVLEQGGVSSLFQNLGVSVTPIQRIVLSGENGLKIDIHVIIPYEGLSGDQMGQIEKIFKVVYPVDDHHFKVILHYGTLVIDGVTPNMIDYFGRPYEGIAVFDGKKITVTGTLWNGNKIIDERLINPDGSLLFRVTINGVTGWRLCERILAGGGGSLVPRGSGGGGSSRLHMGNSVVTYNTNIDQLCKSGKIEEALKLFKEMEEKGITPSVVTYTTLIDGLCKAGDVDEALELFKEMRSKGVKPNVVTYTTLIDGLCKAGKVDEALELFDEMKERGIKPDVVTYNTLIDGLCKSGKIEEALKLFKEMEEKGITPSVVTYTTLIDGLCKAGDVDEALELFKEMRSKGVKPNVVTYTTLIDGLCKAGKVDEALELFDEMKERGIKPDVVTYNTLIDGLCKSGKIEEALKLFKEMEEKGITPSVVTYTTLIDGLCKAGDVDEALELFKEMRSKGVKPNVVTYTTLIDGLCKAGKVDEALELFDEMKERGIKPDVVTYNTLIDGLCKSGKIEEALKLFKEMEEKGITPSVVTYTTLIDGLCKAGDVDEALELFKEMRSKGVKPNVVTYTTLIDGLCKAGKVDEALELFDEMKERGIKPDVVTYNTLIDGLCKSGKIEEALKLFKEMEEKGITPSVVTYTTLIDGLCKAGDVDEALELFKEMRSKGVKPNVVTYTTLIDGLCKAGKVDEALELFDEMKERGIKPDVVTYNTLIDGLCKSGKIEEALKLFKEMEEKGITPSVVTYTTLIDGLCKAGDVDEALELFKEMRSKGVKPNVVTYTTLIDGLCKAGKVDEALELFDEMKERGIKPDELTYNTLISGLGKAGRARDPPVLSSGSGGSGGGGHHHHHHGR
As for the experimental part:
(§1) The binding experiment for PPR protein and RNA was performed by an experimental method for binding of PPR protein and biotinylated RNA on a streptavidin plate.
(§2) There were synthesized RNA probes of 30-base RNAs containing the target CAGx6 sequence, untargeted CGGx6, CUGx6, and CCGx6, and the Dlb ([…]) sequence (positions 8 to 25 of SEQ ID NO: 42) modified with biotin at the 5′-end (in that order, SEQ ID NOS: 38 to 42, respectively) (Grainer). To a streptavidin-coated plate (Thermo Fisher, Cat. No. 15502), the 5′-end biotinylated RNA probes were added, reaction was allowed at room temperature for 30 minutes, and the plate was washed with a probe washing buffer (20 mM Tris-HCl, pH 7.6, 150 mM NaCl, 5 mM MgCl₂, 0.5% NP-40, 1 mM DTT, 0.1% BSA). For background measurement, wells to which biotinylated RNA was not added, but the lysis buffer was added were also prepared. Then, a blocking buffer (20 mM Tris-HCl, pH 7.6, 150 mM NaCl, 5 mM MgCl₂, 0.5% NP-40, 1 mM […], 1% BSA) was added, and the plate surface was blocked at room temperature for 30 minutes. Then, 100 μL of the E. coli lysate containing luciferase-fused PPR protein having a luminescence of 1.5×10⁸ LU/μL was added, and the binding reaction was allowed at room temperature for 30 minutes. Then, the plate was washed 5 times with 200 μL of a washing buffer (20 mM Tris-HCl, pH 7.6, 150 mM NaCl, 5 mM MgCl₂, 0.5% NP-40, 1 mM DTT). To each well, 40 μL of luciferase substrate (Promega, E151A) diluted 2,500-fold with the washing buffer was added, reaction was allowed for 5 minutes, and then luminescence was measured with a plate reader (PerkinElmer, Cat. No. 5103-35).

The target in data set [2] is T2, PPRcag_6 (6D9G), Nluc-PPR-His6 (synthetic construct).
T2 chain: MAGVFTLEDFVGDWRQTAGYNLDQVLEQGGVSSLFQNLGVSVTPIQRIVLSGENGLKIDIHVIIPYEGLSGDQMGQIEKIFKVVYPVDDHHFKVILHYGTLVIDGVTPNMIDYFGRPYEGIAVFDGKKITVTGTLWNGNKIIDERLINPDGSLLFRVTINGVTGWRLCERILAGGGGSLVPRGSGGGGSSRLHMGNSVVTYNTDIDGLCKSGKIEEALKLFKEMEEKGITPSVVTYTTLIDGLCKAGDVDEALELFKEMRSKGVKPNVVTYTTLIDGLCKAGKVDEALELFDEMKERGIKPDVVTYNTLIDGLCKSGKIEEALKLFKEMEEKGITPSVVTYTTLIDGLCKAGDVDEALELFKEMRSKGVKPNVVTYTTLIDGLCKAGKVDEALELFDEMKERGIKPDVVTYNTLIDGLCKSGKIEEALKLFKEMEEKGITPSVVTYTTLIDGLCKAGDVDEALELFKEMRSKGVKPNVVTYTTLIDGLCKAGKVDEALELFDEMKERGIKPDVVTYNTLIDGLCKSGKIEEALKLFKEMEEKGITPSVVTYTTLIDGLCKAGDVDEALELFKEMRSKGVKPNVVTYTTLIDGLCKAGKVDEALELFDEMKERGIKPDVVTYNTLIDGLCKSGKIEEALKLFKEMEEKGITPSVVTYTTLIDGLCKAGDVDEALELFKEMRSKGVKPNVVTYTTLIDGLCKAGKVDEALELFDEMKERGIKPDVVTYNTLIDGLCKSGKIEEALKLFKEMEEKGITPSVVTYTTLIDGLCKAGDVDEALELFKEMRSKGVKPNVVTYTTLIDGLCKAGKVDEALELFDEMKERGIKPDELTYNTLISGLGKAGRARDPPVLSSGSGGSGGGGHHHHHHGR
As for the experimental part:
as §1, §2

The target in data set [3] is T3, PPRcag_4 (6N9E), Nluc-PPR-His6 (synthetic construct).
T3 chain: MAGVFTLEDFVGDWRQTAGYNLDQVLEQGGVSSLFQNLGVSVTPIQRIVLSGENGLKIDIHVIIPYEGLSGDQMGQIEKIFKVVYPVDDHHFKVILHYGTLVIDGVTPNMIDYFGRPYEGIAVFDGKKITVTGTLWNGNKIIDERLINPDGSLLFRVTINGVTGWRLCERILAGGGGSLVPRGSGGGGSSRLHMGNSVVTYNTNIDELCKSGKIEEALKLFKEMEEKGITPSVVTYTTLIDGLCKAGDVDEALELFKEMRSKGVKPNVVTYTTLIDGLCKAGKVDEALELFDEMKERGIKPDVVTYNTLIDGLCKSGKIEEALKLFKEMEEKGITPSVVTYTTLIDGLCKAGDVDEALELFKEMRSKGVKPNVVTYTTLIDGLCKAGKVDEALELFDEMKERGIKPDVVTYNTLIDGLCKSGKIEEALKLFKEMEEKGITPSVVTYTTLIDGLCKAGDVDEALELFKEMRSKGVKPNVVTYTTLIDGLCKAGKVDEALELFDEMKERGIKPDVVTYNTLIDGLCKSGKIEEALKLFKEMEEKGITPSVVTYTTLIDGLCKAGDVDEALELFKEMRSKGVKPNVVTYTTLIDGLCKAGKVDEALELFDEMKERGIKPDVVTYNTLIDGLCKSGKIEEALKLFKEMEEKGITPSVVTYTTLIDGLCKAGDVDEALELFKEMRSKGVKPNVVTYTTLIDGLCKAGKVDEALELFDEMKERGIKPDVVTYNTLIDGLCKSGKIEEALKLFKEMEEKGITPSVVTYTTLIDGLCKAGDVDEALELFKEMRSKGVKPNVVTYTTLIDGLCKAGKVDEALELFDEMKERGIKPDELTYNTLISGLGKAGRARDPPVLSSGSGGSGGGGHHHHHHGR
As for the experimental part:
as §1, §2

Data set [4] has as its target T4, PPRcag_5 (6N9K), Nluc-PPR-His6 (synthetic construct).
T4 chain: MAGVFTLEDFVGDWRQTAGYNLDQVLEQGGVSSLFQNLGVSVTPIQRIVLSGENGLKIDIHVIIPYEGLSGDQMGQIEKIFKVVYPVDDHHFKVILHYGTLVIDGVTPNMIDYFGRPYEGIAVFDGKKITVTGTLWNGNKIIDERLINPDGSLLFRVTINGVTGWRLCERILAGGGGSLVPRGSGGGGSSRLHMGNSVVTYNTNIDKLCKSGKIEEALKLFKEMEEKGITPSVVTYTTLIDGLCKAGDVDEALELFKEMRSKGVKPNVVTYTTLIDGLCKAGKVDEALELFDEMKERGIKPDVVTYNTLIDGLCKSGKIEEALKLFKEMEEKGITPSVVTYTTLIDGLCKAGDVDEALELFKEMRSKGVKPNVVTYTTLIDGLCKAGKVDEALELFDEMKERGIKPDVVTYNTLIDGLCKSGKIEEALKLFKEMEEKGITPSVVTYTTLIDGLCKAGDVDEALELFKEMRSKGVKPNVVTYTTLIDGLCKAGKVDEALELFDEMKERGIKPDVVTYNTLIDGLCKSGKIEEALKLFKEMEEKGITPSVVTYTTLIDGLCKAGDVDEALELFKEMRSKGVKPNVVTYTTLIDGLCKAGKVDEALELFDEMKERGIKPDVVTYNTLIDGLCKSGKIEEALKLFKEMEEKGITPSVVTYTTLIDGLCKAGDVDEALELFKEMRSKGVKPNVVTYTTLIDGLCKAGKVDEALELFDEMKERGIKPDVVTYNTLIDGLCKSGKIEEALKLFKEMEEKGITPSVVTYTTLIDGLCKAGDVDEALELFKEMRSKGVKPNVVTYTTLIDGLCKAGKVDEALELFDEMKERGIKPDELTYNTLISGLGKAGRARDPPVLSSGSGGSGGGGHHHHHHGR
Here is the method:
as §1, §2

B1: CAGx6 RNA probe (ssRNA)
RNA: GACAUGCCAGCAGCAGCAGCAGCAGGACUG
As for B1, the binding signal in data set [1] is about 80%; in data set [2] it was about 130%; in data set [3], about 60%; in data set [4], about 120%.
